Assay results reported in patent US9879306B2, “Luciferase biosensors for cAMP” (PROMEGA CORPORATION, priority 2008, dated 2018).
Residue numbers refer to the chain shown, from its start. Numbers in names are those of the source.

T1: GPR41 (Homo sapiens, UniProt O14843)
T1 sequence (O14843 1-346): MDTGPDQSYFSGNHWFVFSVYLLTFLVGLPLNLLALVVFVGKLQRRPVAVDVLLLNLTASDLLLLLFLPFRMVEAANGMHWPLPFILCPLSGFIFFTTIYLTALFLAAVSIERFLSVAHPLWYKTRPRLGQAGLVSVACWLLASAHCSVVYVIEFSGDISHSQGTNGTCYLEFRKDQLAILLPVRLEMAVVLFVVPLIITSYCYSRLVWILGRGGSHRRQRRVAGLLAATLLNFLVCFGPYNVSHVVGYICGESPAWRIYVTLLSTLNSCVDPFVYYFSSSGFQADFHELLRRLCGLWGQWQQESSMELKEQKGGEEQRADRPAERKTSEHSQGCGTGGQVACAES

B1: 16A2: 7A1 biosensor with F518L in Luc2.0; SEQ ID NO:60, 61 (protein)
chain: MPGAVGKVVPFFEAKVVDLDTGKTLGVNQRGELCVRGPMIMSGYVNNPEATNALIDKDGWLHSGDIAYWDEDEHFFIVDRLKSLIKYKGYQVAPAELESILLQHPNIFDAGVAGLPDDDAGELPAAVVVLEHGKTMTEKEIVDYVASQVTTAKKLRGGVVLVDEVPKGLTGKLDARKIREILIKAKKGSNWDSGCSREGMYESFIESLPFLKSLEFSARLKVVDVIGTKVYNDGEQIIAQGDSADSFFIIESGEVKITMKRKGKSEVEENGAVEIARCSRGQYFGELALVTNKPRAASAHAIGTVKCLAMDVQAFERLLGPCMEIMKRNIATYEEQLVALFGTNMDIVAKNIKKGPAPFYPLEDGTAGEQLHKAMKRYALVPGTIAFTDAHIEVDITYAEYFEMSVRLAEAMKRYGLNTNHRIVVCSENSLQFFMPVLGALFIGVAVAPANDIYNERELLNSMGISQPTVVFVSKKGLQKILNVQKKLPIIQKIIIMDSKTDYQGFQSMYTFVTSHLPPGFNEYDFVPESFDRDKTIALIMNSSGSTGLPKGVALPHRTACVRFSHARDPIFGNQIIPDTAILSVVPFHHGFGMFTTLGYLICGFRVVLMYRFEEELFLRSLQDYKIQSALLVPTLFSFFAKSTLIDKYDLSNLHEIASGGAPLSKEVGEAVAKRFHLPGIRQGYGLTETTSAILITPEGV
B2: 7A1-IQY: 7A1 background with Luc2.0 F369I, K541Q and RIIβB F407Y; SEQ ID NO:29, 30 (protein)
chain: B1 chain with F12I, L161F, K184Q, F341Y
B3: 7A1-ILQ: 7A1 background with Luc2.0 F369I, F518L, K541Q; SEQ ID NO:68, 69 (protein)
chain: B1 chain with F12I, K184Q
B4: 7A1-IQ: 7A1 background with Luc2.0 F369I, K541Q; SEQ ID NO:23, 24 (protein)
chain: B1 chain with F12I, L161F, K184Q
B5: 7A1-IL: 7A1 background with Luc2.0 F369I, F518L; SEQ ID NO:70, 71 (protein)
chain: B1 chain with F12I
B6: 7A1-Q: 7A1 background with Luc2.0 K541Q; SEQ ID NO:62, 63 (protein)
chain: B1 chain with L161F, K184Q
B7: 7A1-I: 7A1 background with Luc2.0 F369I; SEQ ID NO:66, 67 (protein)
chain: B1 chain with F12I, L161F
B8: 7A1-LY: 7A1 background with Luc2.0 F518L and RIIβB F407Y; SEQ ID NO:25, 26 (protein)
chain: B1 chain with F341Y
B9: 7A1-LQY: 7A1 background with Luc2.0 F518L, K541Q and RIIβB F407Y; SEQ ID NO:58, 59 (protein)
chain: B1 chain with K184Q, F341Y
B10: 7A1-QY: 7A1 background with Luc2.0 K541Q and RIIβB F407Y; SEQ ID NO:109, 110 (protein)
chain: B1 chain with L161F, K184Q, F341Y
B11: 7A1-LQ: 7A1 background with Luc2.0 F518L, K541Q; SEQ ID NO:64, 65 (protein)
chain: B1 chain with K184Q
B12: 7A1-IY: 7A1 background with Luc2.0 F369I and RIIβB F407Y; SEQ ID NO:39, 40 (protein)
chain: B1 chain with F12I, L161F, F341Y
B13: 7A1-ILQY: 7A1 background with Luc2.0 F369I, F518L, K541Q and RIIβB F407Y; SEQ ID NO:31, 32 (protein)
chain: B1 chain with F12I, K184Q, F341Y
B14: 7A1-ILY: 7A1 background with Luc2.0 F369I, F518L and RIIβB F407Y; SEQ ID NO:27, 28 (protein)
chain: B1 chain with F12I, F210I, F248Y, F341Y, F359L

Legend:
Assay type in all cases: cell-based
HEK293 cells = assay: Luminescence and fold response of biosensor clones in HEK293 cells after isoproterenol or FSK
Protocol: B. HEK293 cells were transiently transfected with plasmid DNAs encoding various biosensor mutants as above. These biosensor mutants contained the E284A and V316I mutation in the RIIbetaB cAMP binding domain and the modified linker sequence 7A1 (GSNWDSGCSREG; SEQ ID NO: 129). The clones also contained the additional mutations outlined in Table 5. Cells were equilibrated for 2 hours at room temperature with 2 mM EF-Luc. Luminescence was measured 5 and 15 minutes after addition of the isoproterenol and 15 minutes after addition of FSK. Fold response (response; Resp.) was calculated by dividing relative light units (RLUs) from induced cells by the RLUs from uninduced cells. As a control, the biosensor GS358 and 7A1 were included.

GPR41 [1] = assay: Sodium proprionate CRC with biosensor variants in HEK293 cells stably expressing GPR41; settings: ratio of RLU of FSK treated well to untreated well
Procedure, shortened: (§1)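 GPR41-stable HEK293 cells were transiently transfected with a cAMP biosensor variant, then after 24 h equilibrated 2 h at room temperature with 5 mM EF-luc in CO2-independent medium with 10% FBS. Baseline luminescence was read, a sodium propionate concentration series added, and luminescence read after 30 min. EC50 and fold response were derived, with or without FSK.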

GPR41 [2] = target: T1, GPR41; assay: as above; settings: for Fold Response Na proprionate + FSK(1 μM): with FSK 1 μM; for Fold Response Na proprionate: without FSK, ratio of induced to uninduced signal
Procedure, shortened: as §1

dopamine D2 receptor = target: T2, dopamine D2 receptor (Homo sapiens, UniProt P14416); assay: Forskolin, dopamine and haloperidol responses of biosensor clones in HEK293 cells stably expressing the dopamine D2 receptor
T2 construct: expressed in transfected cells
Source text: To measure changes in the intracellular concentration of cAMP, HEK293 cells are transiently transfected with mutant cAMP biosensors followed by treatment with compounds known to increase or decrease the intracellular cAMP concentration through GPCR activation of Gs- or Gi-coupled receptors, respectively.
HEK293 cells stably expressing the dopamine D2 receptor were transiently transfected with the mutant cAMP biosensors from Example VIIB. Cells were also transfected with either 7A1 (Example III) or GS358 (parent biosensor) as controls. Cells were equilibrated for 2 hours at room temperature using 2 mM EF-luc. Antagonist assay wells were pre-treated for 10-15 minutes at room temperature with 10 μM Haloperidol (Halo). Next, the following reagents were added to their respective wells: media alone to “untreated” samples; 3 μM forskolin (FSK) to “forskolin-treated” samples; 3 μM FSK+0.3 μM dopamine to “agonist-treated” samples; and 3 μM FSK+0.3 μM dopamine to the aforementioned wells pre-treated with Halo. The cells were then incubated at room temperature for 10 minutes and luminescence was measured. Fold response for FSK was calculated by dividing the RLU from “forskolin-treated” cells by the RLU from the “untreated” cells. Fold response for dopamine treatment was calculated by dividing the RLU from the “agonist-treated” cells by the RLU from the “forskolin-treated” cells. Fold response for Haloperidol treatment was calculated by dividing the RLU from the cells treated with haloperidol then forskolin plus dopamine by the RLU of cells treated with forskolin plus dopamine alone.

T2 sequence (P14416 whole entry, species assumed): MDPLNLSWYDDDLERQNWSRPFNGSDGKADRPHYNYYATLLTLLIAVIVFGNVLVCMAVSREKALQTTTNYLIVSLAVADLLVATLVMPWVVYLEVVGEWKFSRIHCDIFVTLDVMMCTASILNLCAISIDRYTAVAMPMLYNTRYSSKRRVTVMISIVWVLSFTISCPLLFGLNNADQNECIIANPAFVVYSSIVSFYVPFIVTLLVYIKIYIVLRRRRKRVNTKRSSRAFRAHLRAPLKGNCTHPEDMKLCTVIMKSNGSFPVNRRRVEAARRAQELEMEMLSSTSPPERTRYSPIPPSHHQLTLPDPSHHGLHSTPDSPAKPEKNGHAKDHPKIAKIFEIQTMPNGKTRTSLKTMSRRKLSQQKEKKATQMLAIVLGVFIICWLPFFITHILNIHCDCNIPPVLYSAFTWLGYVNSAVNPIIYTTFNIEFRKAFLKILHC

Molecule | Fold Signal Change (GPR41 [1]) | Fold Response Na proprionate + FSK(1 μM) (GPR41 [2]) | Fold Response Na proprionate (GPR41 [2]) | also measured
B1 | 89.7 fold | 3.76 fold | 2.73 fold | Isoproterenol-5 minutes Induced (HEK293 cells; 5 minutes after isoproterenol): 44890 RLU; Forskolin (FSK) Induced (HEK293 cells; 15 minutes after FSK): 153670 RLU; Isoproterenol-15 minutes Induced (HEK293 cells; 15 minutes after isoproterenol): 141135 RLU; Isoproterenol-5 minutes Resp (HEK293 cells; RLU induced / RLU uninduced, 5 minutes after isoproterenol): 85 fold; Forskolin (FSK) Resp (HEK293 cells; RLU induced / RLU uninduced, 15 minutes after FSK): 76 fold; Isoproterenol-15 minutes Resp (HEK293 cells; RLU induced / RLU uninduced, 15 minutes after isoproterenol): 70 fold; Isoproterenol-5 minutes Uninduced (HEK293 cells; uninduced cells, 5 minutes): 527 RLU; Forskolin (FSK) Uninduced (HEK293 cells; uninduced cells, 15 minutes): 2025 RLU; Isoproterenol-15 minutes Uninduced (HEK293 cells; uninduced cells, 15 minutes): 2025 RLU; Dopamine Induced (dopamine D2 receptor; 3 μM FSK + 0.3 μM dopamine, 10 minutes): 95 RLU; Forskolin (FSK) Induced (dopamine D2 receptor; 3 μM FSK, 10 minutes): 4117 RLU; Halo Induced (dopamine D2 receptor; 10 μM Haloperidol pre-treatment, then 3 μM FSK + 0.3 μM dopamine): 223 RLU; Dopamine Response (dopamine D2 receptor; RLU agonist-treated / forskolin-treated): 0.33 fold; Forskolin (FSK) Response (dopamine D2 receptor; RLU forskolin-treated / untreated): 28 fold; Halo Response (dopamine D2 receptor; RLU haloperidol then FSK + dopamine / FSK + dopamine alone): 2.3 fold; Forskolin (FSK) Uninduced (dopamine D2 receptor; untreated (media alone), 10 minutes): 147 RLU
B2 | 128.0 fold |  | 2.42 fold | 
B3 | 181.8 fold | 5.68 fold | 4.09 fold | 
B4 | 128.0 fold | 3.42 fold | 3.66 fold | 
B5 | 200.0 fold | 4.36 fold | 4.66 fold | 
B6 | 71.6 fold | 4.26 fold | 2.26 fold | 
B7 | 133.9 fold | 6.60 fold | 3.07 fold | 
B8 | 141.7 fold | 62.19 fold | 2.15 fold | 
B9 | 153.1 fold |  | 1.94 fold | 
B10 | 87.6 fold | 161.29 fold | 1.68 fold | 
B11 | 85.2 fold | 6.6 fold | 2.70 fold | 
B12 | 165.7 fold | 8.66 fold | 2.81 fold | 
B13 | 220.1 fold | 8.13 fold | 2.57 fold | 
B14 | 194.6 fold | 8.96 fold | 2.49 fold | 
